# According to patent US6610523B1, “Cytokine-, stress-, and oncoprotein-activated human protein kinase kinases” (University of Massachusetts, priority 1995, dated 2003):
# B1: ATF2: Activating Transcription Factor-2, substrate protein of p38 (protein)
# chain: MKFKLHVNSARQYKDLWNMSDDKPFLCTAPGCGQRFTNEDHLAVHKHKHEMTLKFGPARNDSVIVADQTPTPTRFLKNCEEVGLFNELASPFENEFKKASEDDIKKMPL
# Biological target: T1, p38 MAP kinase (Homo sapiens, UniProt Q16539)
# T1 construct: a PCR fragment containing the coding region of the p38 MAP kinase cDNA; GST (N); made in house; host or cells: bacteria
# Assay: Substrate phosphorylation by bacterially-expressed p38 MAP kinase, PhosphorImager quantitation
# Format: biochemical
# Conditions: 30 minutes reaction; ATF2 = 1.0
# Description: Substrate phosphorylation by p38 MAP kinase was examined by incubation of bacterially-expressed p38 MAP kinase with IKB, cMyc, EGF-R, cytoplasmic phospholipase A2 (cPLA2), c-Jun, and mutated ATF2 (Thr^69,71) and ATP [γ-^32P] (Raingeaud et al. (1995) J. Biol. Chem 270:7420, herein specifically incorporated by reference). GST-IKB was provided by Dr D. Baltimore (Massachusetts Institute of Technology). GST-cMyc (Alvarez et al. (1991) J. Biol. Chem. 266:15277), GST-EGF-R (residues 647-688) (Koland et al. (1990) Biochem. Biophys. Res. Commun. 166:90), and GST-c-Jun (Dérijard et al. (1994) supra) have been described. The phosphorylation reaction was terminated after 30 minutes by addition of Laemmli sample buffer. The phosphorylated proteins were resolved by SDS-PAGE and detected by autoradiography. The rate phosphorylation of the substrate proteins was quantitated by PhosphorImager (Molecular Dynamics Inc.) analysis. The relative phosphorylation of ATF2, MBP, EGF-R, and IKB was 1.0, 0.23, 0.04, and 0.001, respectively.
# T1 sequence (Q16539 whole entry, the tested form may be a part): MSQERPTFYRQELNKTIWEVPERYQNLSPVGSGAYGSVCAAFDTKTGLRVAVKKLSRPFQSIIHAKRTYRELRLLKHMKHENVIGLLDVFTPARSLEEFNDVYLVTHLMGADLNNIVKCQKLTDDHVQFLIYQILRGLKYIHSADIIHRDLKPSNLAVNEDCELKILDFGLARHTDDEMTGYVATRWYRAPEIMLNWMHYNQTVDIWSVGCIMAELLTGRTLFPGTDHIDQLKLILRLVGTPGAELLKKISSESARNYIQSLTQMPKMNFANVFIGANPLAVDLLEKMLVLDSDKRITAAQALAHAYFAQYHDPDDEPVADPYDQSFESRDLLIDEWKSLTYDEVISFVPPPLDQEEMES
molecule,measurement,value
B1,relative phosphorylation of substrate protein by p38 MAP kinase,1.0
